This is an account of results in publication PMC7608592, “Allomorphy as a mechanism of post-translational control of enzyme activity” (Nature Communications, 2020).

For data set [1], the system named is O=P(O)(O)OC[C@H]1O[C@@H](OP(=O)(O)O)[C@H](O)[C@@H](O)[C@@H]1O. The data set is described as follows: purified protein. As to conditions: Mg2+ active site.
The test system of data set [2] is O=P(O)(O)O[C@@H]1O[C@H](CO)[C@@H](O)[C@H](O)[C@H]1O. As to the kind of experiment: purified protein. The note with it: Mg2+ active site.
The target in data set [3] is T1, β-phosphoglucomutase (βPGM) (Lactococcus lactis, UniProt P71447).
T1 construct: gene pgmB
The data set is described as follows: X-ray crystal structure at […] Å; NMR titration (1H15N-TROSY). Format: binding.

The target in data set [4] is T2, β-phosphoglucomutase (βPGM) (Lactococcus lactis, UniProt P71447, P146A).
T2 construct: gene pgmB
The data set is described as follows: NMR: phosphorylation of the purified enzyme (B^P formed) and turnover of F16BP. Format: biochemical.

Data set [5] deals with T1, β-phosphoglucomutase (βPGM). As to the kind of experiment: real-time NMR (A:F16BP complex observed); phosphorylating agent in coupled assay. Format: binding.

As usually defined, the Km is the substrate concentration at which the rate is half of its maximum. In the case of “β-phosphoglucomutase (βPGM) (Lactococcus lactis subsp. lactis Il1403)”, the Km in data set [1] turned out to be 8.5 ± 0.3 µM; in data set [2], 91 ± 4 µM.
As to `O=C(O)CC(O)(CC(=O)O)C(=O)O` [citrate], the “X-ray crystal structure at 2.1 Å; NMR titration (1H15N-TROSY)” value in data set [3] is “Citrate is coordinated in the active site by residues T16, H20, V47–R49 and A115–K117 and mimics substrate binding”.
As to `O=P(O)(O)OC[C@H]1OC(O)(COP(=O)(O)O)[C@@H](O)[C@@H]1O` (mixture of isomers) [F16BP, fructose 1,6-bisphosphate], the “NMR: phosphorylation of the purified enzyme (B^P formed) and turnover of F16BP” value in data set [4] was “On addition of F16BP to βPGMP146A, the two dominant species observed are conformer B and B^P”. Besides, the “real-time NMR (A:F16BP complex observed); phosphorylating agent in coupled assay” value in data set [5] was “A minor population of the A:F16BP complex is also present”.
For the compound “β-phosphoglucomutase (βPGM) (Lactococcus lactis subsp. lactis Il1403; P146A)”, the Km in data set [1] is recorded as 175 ± 3 µM; in data set [2], 157 ± 3 µM.
